This is an account of results in US20040005659.

This data set addresses T1, β-casein (Sigma, St Louis, Mo.), P02666.
T1 chain: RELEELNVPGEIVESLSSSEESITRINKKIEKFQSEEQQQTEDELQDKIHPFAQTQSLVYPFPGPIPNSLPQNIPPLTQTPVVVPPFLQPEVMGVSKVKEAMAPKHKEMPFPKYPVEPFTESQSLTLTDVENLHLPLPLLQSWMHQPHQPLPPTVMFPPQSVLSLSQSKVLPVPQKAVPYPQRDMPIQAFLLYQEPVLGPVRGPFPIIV

B1: PRSS11-L CDS-HAHIS (recombinant human PRSS11-L protease with a C-terminal HA6HIS epitope/affinity tag, expressed in baculovirus-infected Sf9 cells) (protein)
chain: MHLALPASAGLHQLSSPRYKFNFIADVVEKIAPAVVHIELFLRHPLFGRNVPLSSGSGFIMSEAGLIITNAHVVSSNSAAPGRQQLKVQLQNGDSYEATIKDIDKKSDIATIKIHPKKKLPVLLLGHSADLRPGEFVVAIGSPFALQNTVTTGIVSTAQREGRELGLRDSDMDYIQTDAIINYGNSGGPLVNLDGEVIGINTLKVTAGISFAIPSDRITRFLTEFQDKQIKDWKKRFIGIRMRTITPSLVDELKASNPDFPEVSSGIYVQEVAPNSPSQRGGIQDGDIIVKVNGRPLVDSSELQEAVLTESPLLLEVRRGNDDLLFSIAPEVVM
In the case of B1, the “cleavage of β-casein, SDS-PAGE with Coomassie Brilliant Blue staining” value is reported as “The proteolytic activity of PRSS11-L was further confirmed by its cleavage of casein”.
